Measured values taken from US20170252327A1, “Methods of Modulating Gastrointestinal Tract Flora Levels with Alkaline Phosphatase” (priority 2008, published 2017).
Entries after “also recorded” stand apart in the source; their conditions may differ.

Assays:
[1] = tested on: streptomycin-resistant S. typhimurium; experiment: Growth of Salmonella typhimurium in streptomycin-treated WT mice with or without cIAP; format: in vivo; conditions: for Growth of pathogenic S. typhimurium: cIAP in the drinking water
Procedure: Restoration or maintenance of the normal gastrointestinal tract flora by IAP was postulated to inhibit infection by pathogenic bacteria because pathogenic bacteria would likely face competition for ‘food and shelter’ (e.g., nutrition, epithelial attachment sites, space, etc.) and antibacterial factors produced by commensal organisms. Accordingly, groups of WT mice (n=5) were treated with streptomycin (5 mg/ml) for 3 days, followed by oral gavage of 500,000 CFU of streptomycin-resistant S. typhimurium in the presence of cIAP (200 U/ml for cIAP^+ Group) or absence of cIAP (20 μl /ml ‘vehicle for cIAP’ (50 mM KCl, 10 mM Tris-HCl (pH 8.2), 1 mM MgCl2, 0.1 mM ZnCl2, and 50% glycerol) in drinking water for control cIAP^− Group). The presence of S. typhimurium was monitored in the stools of these animals by plating stools on Hektoen plates containing streptomycin (100 μg/ml).

[2] = tested on: streptomycin-resistant E. coli; experiment: Survival of gavaged commensal E. coli in IAP-KO mice given oral cIAP; format: in vivo; conditions: oral supplementation of cIAP
Source text: Two groups of IAP-KO animals (n=6) were put on drinking water containing cIAP or ‘vehicle for cIAP.’ On Day 2, animals were gavaged with 20,000 CFU of streptomycin-resistant E. coli, which is a commensal bacterium isolated from the stool of a WT mouse, and the presence of streptomycin-resistant E. coli in the stools of these animals was closely monitored. As only a few animals carried E. coli in their stools (FIG. 4B), the animals were gavaged with another dose of 50,000 CFU of E. coli on Day 5, however, again only a few animals shed E. coli in their stools. On Day 8, most of the animals of either group carried no E. coli in their stools. Supplementation of cIAP was stopped and the animals were treated with streptomycin for 3 days, which should kill most of the native flora, but would allow proliferation of the surviving streptomycin-resistant E. coli.

[3] = tested on: gut microbiota; experiment: Restoration of gut flora after ampicillin treatment with or without cIAP (stool culture in LB media); format: in vivo, mice (C57BL/6)
Procedure: An experiment was performed in which five mice (C57BL/6) of each test group, approximately 6 weeks old, were treated with 1 mg/ml of the antimicrobial drug ampicillin, in the presence or absence of calf intestinal alkaline phosphatase (cIAP) (New England Biolabs, Ipswich, Mass.). Ampicillin was administered orally with the animal's drinking water at a concentration of 1 mg/ml, and 250 units of cIAP were administered twice daily as oral gavage. Individual stool samples of each group were cultured in LB media each day and analyzed for the presence/absence of the gut flora. The gut flora of mice before receiving the antibiotic was considered as a baseline control for normal gastrointestinal tract flora (present in all samples). […] Both treatment groups received ampicillin for 10 days.

[4] = tested on: Gram-negative bacteria (mostly E. coli); experiment: Restoration of commensal Gram-negative gut flora in streptomycin-treated WT mice with or without cIAP (MacConkey agar); format: in vivo; conditions: for Number of animals with commensal Gram-negative bacteria / restoration of gut flora, cIAP+ vs cIAP- Group: after streptomycin for three days, cIAP 200 U/ml, p<0.00004
Procedure: Accordingly, experiments were performed in which groups of WT mice (n=10) were treated orally with the antibiotic streptomycin in the presence or absence of cIAP. Streptomycin (5 mg/ml) and cIAP (200 U/ml for cIAP^+ Group, n=5) or ‘vehicle for cIAP’ (20 μl/ml ‘vehicle for cIAP’ (50 mM KCl, 10 mM Tris-HCl (pH 8.2), 1 mM MgCl, 0.1 mM ZnCl2, and 50% glycerol) in drinking water for control cIAP^− Group, n=5) were administered in the animals' drinking water and fecal cultures were performed.
Individual stool samples were cultured each day on MacConkey agar media. […] After discontinuation of antibiotic treatment, the time of appearance (Day) of Gram-negative bacteria (mostly E. coli, occasionally P. mirabilis) in stool samples was recorded for each animal. The experiment was repeated six times, which raised the total number of animals in each group to 39 (n=39), however, duration of each experiment varied (7-35 days). Data was compiled from all six experiments and the number of animals with E. coli in each group on a specific day was recorded.

[5] = format: physicochemical; conditions: 24 h
Procedure: IAP activity was determined following the protocol as described by Baykov et al. (Anal Biochem, 171:266, 1988). Briefly, individual stool samples were homogenized in water (10 mg/100 μl), centrifuged and supernatant was collected. Then 25 μl of the stool supernatant (or aqueous cIAP solution) were mixed with 175 μl phosphatase assay reagent containing 5 mM of p-nitrophenyl phosphate (pNPP) followed by determining optical density at 405 nm after a specific time period when the samples usually turned yellow due to release of p-nitrophenol. Protein concentrations of stool supernatants were measured using a kit from Bio-Rad Laboratories (Hercules, Calif.). The specific activity of the enzyme, expressed as pmole pNPP hydrolyzed per minute per μg of protein, and CFU per gm of stool +/− SEM were determined and the results are shown in FIG. 3. As expected, IAP activity is lower in hypothyroid animals (Weeks 6-32, FIG. 3A) as compared to the euthyroid animals (Week 0, FIG. 3A). […] At Week 32 the IAP activity in hyperthyroid animals was approximately 7-fold higher compared to euthyroid animals and 15-fold higher compared to hypothyroid animals. […] On the other hand the fecal bacterial counts in hyperthyroid animals continued to gradually increase, being the highest at Week 32 when the experiment was terminated (FIGS. 3B, 3C, and 3D). […]

[6] = tested on: streptomycin-resistant E. coli; experiment: Colonization of E. coli in antibiotic-treated WT mice supplemented with cIAP; format: in vivo; conditions: WT mice after streptomycin and ciprofloxacin, p<0.015
Procedure: To determine the temporal effects of IAP on the restoration of commensal gut flora, groups of WT animals (n=6) were treated with streptomycin (5 mg/ml) and ciprofloxacin (0.5 mg/ml) for three days followed by oral gavage of small doses (20,000 CFU) of streptomycin-resistant E. coli for two alternate days (FIG. 4C; Day 0 and Day 2) in the presence or absence of cIAP.

[7] = tested on: gut microbiota; experiment: Restoration of gut flora after streptomycin treatment with or without cIAP (stool culture in LB media); format: in vivo, mice (C57BL/6)
Procedure: To address the role of intestinal alkaline phosphatase on the gastrointestinal tract flora of mammals, an experiment was performed in which five approximately six week old mice (C57BL/6) of each test group were treated with an antimicrobial drug, streptomycin, in the presence or absence of calf intestinal alkaline phosphatase (cIAP) (Sigma, St. Louis, Mo.). Both streptomycin (5 mg/ml) and cIAP (50 units/ml) were administered orally with the animal's drinking water. Individual stool samples of each group were cultured in LB media each day and analyzed for the presence/absence of gut flora. The gastrointestinal tract flora of mice before antibiotic treatment was considered as a baseline control for the normal gut flora (present in all samples).

B1: calf intestinal alkaline phosphatase (protein, UniProt P19111 20-506, looked up)
Intestinal-type alkaline …: LVPVEEEDPAFWNRQAAQALDVAKKLQPIQTAAKNVILFLGDGMGVPTVTATRILKGQMNGKLGPETPLAMDQFPYVALSKTYNVDRQVPDSAGTATAYLCGVKGNYRTIGVSAAARYNQCKTTRGNEVTSVMNRAKKAGKSVGVVTTTRVQHASPAGAYAHTVNRNWYSDADLPADAQMNGCQDIAAQLVNNMDIDVILGGGRKYMFPVGTPDPEYPDDASVNGVRKRKQNLVQAWQAKHQGAQYVWNRTALLQAADDSSVTHLMGLFEPADMKYNVQQDHTKDPTLQEMTEVALRVVSRNPRGFYLFVEGGRIDHGHHDDKAYMALTEAGMFDNAIAKANELTSELDTLILVTADHSHVFSFGGYTLRGTSIFGLAPSKALDSKSYTSILYGNGPGYALGGGSRPDVNDSTSEDPSYQQQAAVPQASETHGGEDVAVFARGPQAHLVHGVEEETFVAHIMAFAGCVEPYTDCNLPAPTTATSIPD
notes: calf intestinal alkaline phosphatase enzyme (Sigma)
[1]; cIAP 200 U/ml in drinking water, p<0.001
  Salmonella count, less than in cIAP- Group: approximately 4 log
[1]
  Growth of pathogenic S. typhimurium: dramatically inhibited
[1]; listed as IAP
  Growth of pathogenic S. typhimurium: inhibits Salmonella typhimurium infection
[2]
  Survival of E. coli in IAP-KO mice: can survive
[2]; listed as IAP
  Survival of E. coli in IAP-KO mice: favors survival of E. coli
[3]; 250 units cIAP twice daily oral gavage, no ampicillin
  Gut flora of mice receiving only cIAP: normal gut flora phenotype; also recorded: did not affect normal gut flora
[3]; with ampicillin
  Effect of cIAP on time for restoring the normal gut flora: significantly reduced the time for restoring the normal gut flora
[4]
  Number of animals with commensal Gram-negative bacteria / restoration of gut flora, cIAP+ vs cIAP- Group: much higher
[4]; listed as IAP
  Number of animals with commensal Gram-negative bacteria / restoration of gut flora, cIAP+ vs cIAP- Group: enhances the restoration of antibiotic-associated loss of gut flora
[4]; cIAP+ Group, after discontinuation of streptomycin
  Day at the end of which all animals showed E. coli in their stools: 3 days
[5]
  cIAP enzymatic activity remaining: approximately 80%
[6]
  Colonization of E. coli: temporal enhancement of colonization of E. coli
[6]; listed as IAP
  Colonization of E. coli: temporal enhancement of E. coli colonization
[7]; cIAP 50 units/ml in drinking water, no streptomycin
  Gut flora of mice receiving only cIAP: normal gut flora phenotype; also recorded: did not affect normal gut flora
[7]; co-administered with streptomycin throughout the treatment period
  Effect of cIAP on reestablishment of normal gut flora: significantly enhanced the early reestablishment of normal gut flora
